Experimental data reported in PMC9109680.

Key:
P37277 [1] = assay: anion-exchange chromatography; DDM-solubilised thylakoid membranes (2 mg chl) on DEAE, MgSO4 gradient, 0.04% DDM; A700 peak areas of the PSI trimer and PSI monomer fractions; cells grown under standard conditions (GL); WT and ORR1 strains; details: other: anion-exchange chromatography
P37277 [2] = assay: anion-exchange chromatography; DDM-solubilised thylakoid membranes (2 mg chl) on DEAE, MgSO4 gradient, 0.04% DDM; A700 peak areas of the PSI trimer and PSI monomer fractions; cells grown under increased photon flux (FL); WT and ORR1 strains; details: other: anion-exchange chromatography
[3] = target: photosystem I (PSI) reaction center (Synechocystis sp. PCC 6803 (endogenous in S. 6803 cells)) (UniProt P37277); assay: native gel or EMSA; BN-PAGE, 4-16% Bis/Tris gels, of PSI fractions isolated by anion-exchange chromatography (or sucrose gradients), 0.04% DDM; bands compared to literature; WT and ORR1 cells, GL or FL
[4] = target: photosystem I (PSI) reaction center (Synechocystis sp. PCC 6803 (endogenous in S. 6803 cells)) (UniProt P37277); assay: anion-exchange chromatography; DDM-solubilised thylakoid membranes (2 mg chl) on DEAE, MgSO4 gradient, 0.04% DDM; A700 peak areas of the PSI trimer and PSI monomer fractions; cells grown under standard conditions (GL); WT and ORR1 strains
[5] = target: photosystem I (PSI) reaction center (Synechocystis sp. PCC 6803 (endogenous in S. 6803 cells)) (UniProt P37277); assay: anion-exchange chromatography; DDM-solubilised thylakoid membranes (2 mg chl) on DEAE, MgSO4 gradient, 0.04% DDM; A700 peak areas of the PSI trimer and PSI monomer fractions; cells grown under increased photon flux (FL); WT and ORR1 strains

Sequence of photosystem I (PSI) reaction center (P37277 whole entry, looked up): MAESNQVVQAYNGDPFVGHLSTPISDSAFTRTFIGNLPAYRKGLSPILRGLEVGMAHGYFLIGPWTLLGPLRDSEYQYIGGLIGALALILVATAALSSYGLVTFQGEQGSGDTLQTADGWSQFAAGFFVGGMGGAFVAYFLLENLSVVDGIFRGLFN

For photosystem I (PSI) reaction center, the Monomer (% of total PSI), ORR1 strain (% of total PSI) (P37277 [1]) was 18, the Monomer (% of total PSI), WT strain (% of total PSI) (P37277 [1]) was 14 and the Monomer (% of total PSI), ORR1 strain (% of total PSI) (P37277 [2]) was 34. The Monomer (% of total PSI), WT strain (% of total PSI) (P37277 [2]) was 10.
For “photosystem I (PSI) reaction center (from UniProt P37277 1-157) (complex)”, the stoichiometry N [3] was 3, the Monomer : trimer (A700 peak areas), ORR1 strain [4] was 0.23 and the Monomer : trimer (A700 peak areas), WT strain [4] was 0.17. The Trimer : monomer (A700 peak areas), ORR1 strain [4] was 4.6, the Trimer : monomer (A700 peak areas), WT strain [4] was 6.3 and the Monomer : trimer (A700 peak areas), ORR1 strain [5] was 0.53. It also gave a Monomer : trimer (A700 peak areas), WT strain [5] of 0.11, a Trimer : monomer (A700 peak areas), ORR1 strain [5] of 2 and a Trimer : monomer (A700 peak areas), WT strain [5] of 9.2.
